# According to paper doi:10.1101/2024.08.05.606604, “The molecular basis of Human FN3K mediated phosphorylation of glycated substrate” (bioRxiv, 2024):
# B1: HsFN3KΔ (human fructosamine-3-kinase with an internal loop truncation: amino acid 117–138 replaced with a GSS linker) (enzyme)
# chain: MEQLLRAELRTATLRAFGGPGAGCISEGRAYDTDAGPVFVKVNRRTQARQMFEGEVASLEALRSTGLVRVPRPMKVIDLPGGGAAFVMEHLKMKSLSSQASKLGEQMADLHLYNQKGSSYVDKFGFHTVTCCGFIPQVNEWQDDWPTFFARHRLQAQLDLIEKDYADREARELWSRLQVKIPDLFCGLEIVPALLHGDLWSGNVAEDDVGPIIYDPASFYGHSEFELAIALMFGGFPRSFFTAYHRKIPKAPGFDQRLLLYQLFNYLNHWNHFGREYRSPSLGTMRRLLK
# notes: human fructosamine-3-kinase (FN3K), Gene ID 64122, residues before the truncated loop (up to residue 116); linker that replaces amino acids 117–138; human fructosamine-3-kinase (FN3K), Gene ID 64122, residues after the truncated loop (from residue 139); Construct used for all crystal structures; also called apo-HsFN3K; apo-HsFN3KΔ; source: E. coli Rosetta 2 (DE3), purified (Ni-NTA, SP-HP cation …)
# Molecular target: the molecule itself
# Assay: crystal structure; HsFN3KΔ crystals, hanging drop vapor diffusion at 20 °C (0.5 M ammonium sulfate, 0.1 M tri-sodium citrate, 1 M lithium sulfate); space group P212121, two molecules in the asymmetric unit; apo and soaked with nucleotides and DMF
protein,measurement,value
B1,stoichiometry N,2
